Publication doi:10.1101/2020.07.15.204859

Target: T1, S. Typhimurium 14028S HNS (STM14_2116) (Salmonella enterica serovar Typhimurium 14028S), P0A1S2
T1 chain: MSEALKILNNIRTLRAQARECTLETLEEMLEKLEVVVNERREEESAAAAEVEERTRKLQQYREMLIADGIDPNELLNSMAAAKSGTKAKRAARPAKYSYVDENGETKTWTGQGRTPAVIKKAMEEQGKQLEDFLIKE
Assay: SEC
Settings: remark: other sources report otherwise

B1: S. Typhimurium 14028S HNS (STM14_2116), P0A1S2 1-137 (natural protein)
chain: T1 chain
Work on B1 yielded a stoichiometry N of 2.
